# Experimental data: the RNAGym collection of RNA variant scans (doi:10.7554/elife.90254)
# B1: LINE1-mini (parent)
# chain: GGCAGAGCUCAACACAGCGUGGCAAAGUGGCUGUGGCUAGACUGCC
# Variants of: B1
# Assay: self-cleavage, relative activity (ratio to wild type); higher = more cleavage; in vitro, sequencing; the parent is a self-cleaving ribozyme
row,Variant,self-cleavage
1,A14U U43A,0.16
2,A14U U43G,0.35
3,A14U U43C,0.07
4,A14U C37A,0.08
5,A14U C37G,0.05
6,A14U C37U,0.03
7,A14U U34G,0.75
8,A14U U34A,0.82
9,A14U U34C,0.17
10,A14U C45U,0.36
11,A14U C45G,0.07
12,A14U C45A,0.07
13,A14U C31A,0.06
14,A14U C31G,0.04
15,A14U C31U,0.04
16,A14G G36A,0.26
17,A14G G36C,0.07
18,A14G G36U,0.12
19,A14U G22A,0.35
20,A14U G22U,0.87
21,A14U G22C,0.27
22,A14G G21A,0.71
23,A14G G21U,0.79
24,A14G G21C,0.24

row,Variant,self-cleavage
1,A14U G27U,0.29
2,A14U G27C,0.16
3,A14U G27A,0.37
4,C15A A26U,0.08
5,C15A A26C,0.08
6,C15A A26G,0.06
7,C15A A24U,0.12
8,C15A A24G,0.07
9,C15A A24C,0.04
10,A14G G30U,0.34
11,A14G G30A,0.28
12,A14G G30C,0.24
13,A14U C15U,0.18
14,A14U C15A,0.16
15,A14U C15G,0.04
16,C15A A41C,0.15
17,C15A A41G,0.06
18,C15A A41U,0.05
19,A14U C18U,0.08
20,A14U C18A,0.11
21,A14U C18G,0.19
22,A14U A41G,0.1
23,A14U A41C,0.06
24,A14U A41U,0.25

row,Variant,self-cleavage
1,A14U G17A,0.13
2,A14U G17U,0.1
3,A14U G17C,0.22
4,C15A,0.1
5,A14G G22C,0.31
6,A14G G22U,0.98
7,A14G G22A,0.34
8,A14U C23U,0.31
9,A14U C23G,0.15
10,A14U C23A,0.65
11,A14U U20C,0.19
12,A14U U20G,0.28
13,A14U U20A,0.42
14,A14U A39U,0.57
15,A14U A39G,0.06
16,A14U A39C,0.14
17,A14G G44U,0.19
18,A14G G44A,0.22
19,A14G G44C,0.19
20,A14G G27A,0.83
21,A14G G27U,0.42
22,A14G G27C,0.61
23,C15A A16U,0.06
24,C15A A16G,0.07

row,Variant,self-cleavage
1,C15A A16C,0.08
2,A14G G35C,0.05
3,A14G G35A,0.07
4,A14G G35U,0.15
5,A14U U38G,0.06
6,A14U U38A,0.34
7,A14U U38C,0.17
8,A14U G40U,0.11
9,A14U G40A,0.05
10,A14U G40C,0.08
11,A14G U34A,0.16
12,A14G U34G,0.3
13,A14G U34C,0.61
14,A14U A26C,0.6
15,A14U A26G,0.34
16,A14U A26U,0.53
17,A14G G40C,0.09
18,A14G G40A,0.1
19,A14G G40U,0.12
20,C15A C18G,0.09
21,C15A C18A,0.04
22,C15A A25G,0.12
23,C15A A25C,0.04
24,C15A A25U,0.07

row,Variant,self-cleavage
1,A14U A16U,0.1
2,A14U A16C,0.1
3,A14U A16G,0.09
4,A14U G44C,0.2
5,A14U G44U,0.06
6,A14U G44A,0.13
7,A14G U38A,0.52
8,A14G U38C,0.15
9,A14G U38G,0.01
10,A14G U20C,0.78
11,A14G U20A,0.23
12,A14G U20G,0.15
13,A14U G21A,0.62
14,A14U G21C,0.57
15,A14U G21U,0.74
16,A14U C42A,0.21
17,A14U C42G,0.1
18,A14U C42U,0.2
19,A14G U43A,0.05
20,A14G U43G,0.11
21,A14G U43C,0.06
22,A14U A24G,0.79
23,A14U A24U,0.42
24,A14U A24C,0.15

row,Variant,self-cleavage
1,A14G G19U,0.54
2,A14U U32C,0.15
3,A14U U32A,0.05
4,A14U U32G,0.1
5,A14G U32C,0.08
6,A14G U32G,0.04
7,A14G U32A,0.06
8,A14U A25U,0.32
9,A14U A25C,0.3
10,A14U A25G,0.1
11,A14U U28C,0.35
12,A14U U28G,0.3
13,A14U U28A,0.14
14,A14U G36C,0.08
15,A14U G36U,0.24
16,A14U G36A,0.15
17,A14U G19A,0.53
18,A14U G19C,0.15
19,A14U G19U,0.62
20,A14G G33A,0.07
21,A14G G33C,0.03
22,A14G G33U,0.16
23,A14U G35A,0.16
24,A14U G35C,0.11

row,Variant,self-cleavage
1,A14U G35U,0.12
2,A14U G33A,0.08
3,A14U G33U,0.12
4,A14U G33C,0.05
5,A14U G30A,0.18
6,A14U G30U,0.19
7,A14U G30C,0.14
8,A14U G29U,0.5
9,A14U G29A,0.98
10,A14U G29C,0.41
11,C15A A39C,0.06
12,C15A A39G,0.08
13,C15A A39U,0.06
14,A14G G29C,0.37
15,A14G G29A,0.78
16,A14G G29U,0.29
17,A14U,0.45
18,A14U C46A,0.4
19,A14U C46U,0.28
20,A14U C46G,0.19
21,A14G U28C,0.04
22,A14G U28G,0.3
23,A14G U28A,0.39
